In ChEMBL document CHEMBL1146311, “Carbonic anhydrase activators: L-Adrenaline plugs the active site entrance of isozyme II, activating better isoforms I, IV, VA, VII, and XIV” (Bioorg Med Chem Lett, 2007):

What was measured:
Conditions in all cases: Homo sapiens; 10 uM
[1] = substrate: CNC[C@H](O)c1ccc(O)c(O)c1
Description: (§1) Activity of human recombinant CA4 at 10 uM by stopped-flow technique

[2] = substrate: NCCc1c[nH]cn1
Description: as §1

[3] = substrate: CNC[C@H](O)c1ccc(O)c(O)c1; remark: listed apart in the source
Description: (§2) Activity of human recombinant CA5A at 10 uM by stopped-flow technique

[4] = substrate: NCCc1c[nH]cn1; remark: listed apart in the source
Description: as §2

[5] = substrate: CNC[C@H](O)c1ccc(O)c(O)c1; remark: listed apart in the source
Description: (§3) Activity of human recombinant CA7 at 10 uM by stopped-flow technique

[6] = substrate: NCCc1c[nH]cn1; remark: listed apart in the source
Description: as §3

[7] = substrate: CNC[C@H](O)c1ccc(O)c(O)c1; remark: listed apart in the source
Description: (§4) Activity of human recombinant CA14 at 10 uM by stopped-flow technique

[8] = substrate: NCCc1c[nH]cn1; remark: listed apart in the source
Description: as §4

B1: Carbonic anhydrase 4 (Homo sapiens), P22748 (protein)
chain: MRMLLALLALSAARPSASAESHWCYEVQAESSNYPCLVPVKWGGNCQKDRQSPINIVTTKAKVDKKLGRFFFSGYDKKQTWTVQNNGHSVMMLLENKASISGGGLPAPYQAKQLHLHWSDLPYKGSEHSLDGEHFAMEMHIVHEKEKGTSRNVKEAQDPEDEIAVLAFLVEAGTQVNEGFQPLVEALSNIPKPEMSTTMAESSLLDLLPKEEKLRHYFRYLGSLTTPTCDEKVVWTVFREPIQLHREQILAFSQKLYYDKEQTVSMKDNVRPLQQLGQRTVIKSGAPGRPLPWALPALLGPMLACLLAGFLR
[1]
  kcat: 2.9 10^6/s
[2]
  kcat: 3.5 10^6/s

B2: Carbonic anhydrase 5A, mitochondrial (Homo sapiens), P35218 (protein)
chain: MLGRNTWKTSAFSFLVEQMWAPLWSRSMRPGRWCSQRSCAWQTSNNTLHPLWTVPVSVPGGTRQSPINIQWRDSVYDPQLKPLRVSYEAASCLYIWNTGYLFQVEFDDATEASGISGGPLENHYRLKQFHFHWGAVNEGGSEHTVDGHAYPAELHLVHWNSVKYQNYKEAVVGENGLAVIGVFLKLGAHHQTLQRLVDILPEIKHKDARAAMRPFDPSTLLPTCWDYWTYAGSLTTPPLTESVTWIIQKEPVEVAPSQLSAFRTLLFSALGEEEKMMVNNYRPLQPLMNRKVWASFQATNEGTRS
[3]
  kcat: 3.9 10^5/s
[4]
  kcat: 8.6 10^5/s

B3: Carbonic anhydrase 7 (Homo sapiens), P43166 (protein)
chain: MTGHHGWGYGQDDGPSHWHKLYPIAQGDRQSPINIISSQAVYSPSLQPLELSYEACMSLSITNNGHSVQVDFNDSDDRTVVTGGPLEGPYRLKQFHFHWGKKHDVGSEHTVDGKSFPSELHLVHWNAKKYSTFGEAASAPDGLAVVGVFLETGDEHPSMNRLTDALYMVRFKGTKAQFSCFNPKCLLPASRHYWTYPGSLTTPPLSESVTWIVLREPICISERQMGKFRSLLFTSEDDERIHMVNNFRPPQPLKGRVVKASFRA
[5]
  kcat: 10.4 10^5/s
[6]
  kcat: 15.2 10^5/s

B4: Carbonic anhydrase 14 (Homo sapiens), Q9ULX7 (protein)
chain: MLFSALLLEVIWILAADGGQHWTYEGPHGQDHWPASYPECGNNAQSPIDIQTDSVTFDPDLPALQPHGYDQPGTEPLDLHNNGHTVQLSLPSTLYLGGLPRKYVAAQLHLHWGQKGSPGGSEHQINSEATFAELHIVHYDSDSYDSLSEAAERPQGLAVLGILIEVGETKNIAYEHILSHLHEVRHKDQKTSVPPFNLRELLPKQLGQYFRYNGSLTTPPCYQSVLWTVFYRRSQISMEQLEKLQGTLFSTEEEPSKLLVQNYRALQPLNQRMVFASFIQAGSSYTTGEMLSLGVGILVGCLCLLLAVYFIARKIRKKRLENRKSVVFTSAQATTEA
[7]
  kcat: 4.5 10^5/s
[8]
  kcat: 10 10^5/s
